Experimental data: the supplement of paper PMC7125110
± gives the standard error. For part of these data: Fewer inactive variants are shown than the library holds.

B1: glmS ribozyme (parent)
chain: AUAAAAGCGCCAGAACUACAGAAAUGUAGUUGACGAGGAGGAGGUUUAUCGAAUUUUCGGCGGAUGCCUCCAAA

Tests used:
Details in all cases: with glucosamine-6-phosphate
[1] = variants of: B1; experiment: kcat; higher = faster cleavage; RNA array
How it was run: (§1)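 In situ transcription by E. coli RNA polymerase produced barcoded ribozyme variants on sequenced MiSeq chips, and a hybridised Cy3 probe tracked them at 37 °C. Glucosamine-6-phosphate was flowed in at 40 μM to 10 mM in HEPES/KCl/Mg(OAc)2 buffer. kcat and KM were taken from weighted Michaelis–Menten fits of kobs values from exponential decay fits.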

[2] = variants of: B1; experiment: self-cleavage kobs at 40 uM GlcN6P; higher = faster cleavage; RNA array
How it was run: as §1

[3] = variants of: B1; experiment: self-cleavage kobs at 2500 uM GlcN6P; higher = faster cleavage; RNA array
How it was run: as §1

[4] = variants of: B1; experiment: self-cleavage kobs at 10000 uM GlcN6P; higher = faster cleavage; RNA array
How it was run: as §1

[5] = variants of: B1; experiment: KM; higher = weaker cofactor use; RNA array
How it was run: as §1

[6] = variants of: B1; experiment: self-cleavage kobs at 160 uM GlcN6P; higher = faster cleavage; RNA array
How it was run: as §1

[7] = variants of: B1; experiment: self-cleavage kobs at 640 uM GlcN6P; higher = faster cleavage; RNA array
How it was run: as §1

Variant	kcat [1] [s⁻¹]	self-cleavage kobs at 40 uM GlcN6P [2] [s⁻¹]	self-cleavage kobs at 2500 uM GlcN6P [3] [s⁻¹]	self-cleavage kobs at 10000 uM GlcN6P [4] [s⁻¹]	KM [5] [µM]	self-cleavage kobs at 160 uM GlcN6P [6] [s⁻¹]	self-cleavage kobs at 640 uM GlcN6P [7] [s⁻¹]
G38A U47G C71G	1.15e-05 ± 1.8e-06						
A39G G41C	4.55e-05 ± 7.4e-06	< 1e-05	5.57e-05 ± 1.5e-05	3.84e-05 ± 1.2e-05			
A39G G41A	0.00311 ± 0.00078	4.23e-05 ± 8.3e-06	0.00153 ± 0.00033	0.00217 ± 0.0003	3870 ± 1400	8.83e-05 ± 2.3e-05	0.000475 ± 9.1e-05
G38U G59C U69G	4.16e-05 ± 1.3e-05						
G37C C67U	2.86e-05 ± 3.3e-06		2.85e-05 ± 1e-05				
G37A U46C	0.0015 ± 0.00029		0.00046 ± 8e-05	0.00117 ± 0.00017	4230 ± 1100	5.92e-05 ± 9.2e-06	0.000204 ± 3e-05
A36C U55C	< 1e-05			< 1e-05			
G37C A64C	1.32e-05 ± 3.3e-06			< 1e-05			
G35U U55C	< 1e-05	< 1e-05	< 1e-05	< 1e-05		< 1e-05	
A36U A64G C70U	6.13e-05 ± 1.3e-05		7.29e-05 ± 2.6e-05	5.17e-05 ± 1.8e-05			
G37A U45A	0.00537 ± 0.00043	0.000126 ± 1.4e-05	0.0027 ± 0.0006	0.00477 ± 0.00049	1760 ± 210	0.000452 ± 8.9e-05	0.00131 ± 0.00021
G37C U54G U55G	5.85e-05 ± 2.8e-06			4.79e-05 ± 1.5e-05	2190 ± 470		
A39C C58U	1.02e-05 ± 1.6e-06						
G37U C50A	< 1e-05			< 1e-05			< 1e-05
A36C A52U U56G U65A U69A	2.16e-05 ± 2.7e-06						
G40A C67U	0.000237 ± 3.9e-05		0.000218 ± 2.6e-05	0.000189 ± 2.6e-05	964 ± 350	2.41e-05 ± 1.1e-05	9.44e-05 ± 9.9e-06
A39G C67A	0.00703 ± 0.003	0.000425 ± 7.2e-05		0.00689 ± 0.0015			0.00288 ± 0.00088
A39G C67U	0.00597 ± 0.0013	0.00033 ± 5.8e-05	0.00338 ± 0.0007	0.00666 ± 0.00089	979 ± 370	0.000762 ± 0.00016	0.00216 ± 0.00033
G40A	0.0122 ± 0.00085	0.000363 ± 7.8e-06	0.00876 ± 0.0005	0.0103 ± 0.00063	1310 ± 110	0.0012 ± 0.00012	0.00372 ± 0.0003
G37A C67U	0.000574 ± 0.0001		0.00036 ± 4.6e-05	0.000449 ± 4.9e-05	2310 ± 720	4.58e-05 ± 1.1e-05	0.000109 ± 1.5e-05
G37A C67A	0.000407 ± 4.2e-05		0.000258 ± 4e-05	0.000336 ± 4.8e-05	1680 ± 370		0.000119 ± 2e-05

Variant	kcat [1] [s⁻¹]	self-cleavage kobs at 40 uM GlcN6P [2] [s⁻¹]	self-cleavage kobs at 2500 uM GlcN6P [3] [s⁻¹]	self-cleavage kobs at 10000 uM GlcN6P [4] [s⁻¹]	KM [5] [µM]	self-cleavage kobs at 160 uM GlcN6P [6] [s⁻¹]	self-cleavage kobs at 640 uM GlcN6P [7] [s⁻¹]
G37A C67G	1.61e-05 ± 2e-06						
G37A G44U	8.09e-05 ± 2.1e-05		4.71e-05 ± 9.1e-06	5.95e-05 ± 2.3e-05		< 1e-05	
A39U G44U	0.00106 ± 0.00049	8.33e-05 ± 6.8e-06	0.000955 ± 9.3e-05			0.000143 ± 1.3e-05	0.000437 ± 3e-05
A39C G44C	1.03e-05 ± 1.3e-06				3630 ± 1200	< 1e-05	
A39C G44U	4.89e-05 ± 4.8e-06			3.48e-05 ± 8.8e-06	4080 ± 1200		
G38U C67A	1.4e-05 ± 1.8e-06						
G38U C67U	< 1e-05						
A36U A64G	1.98e-05 ± 2e-06			1.85e-05 ± 5.8e-06			
A39G U65A	0.0108 ± 0.0047	0.000266 ± 6.6e-05	0.00741 ± 0.0031	0.00966 ± 0.0034			0.00201 ± 0.00056
A39G U45C	0.0102 ± 0.0019	0.00012 ± 2.4e-05	0.00381 ± 0.0011	0.00774 ± 0.0016	3810 ± 980		0.00126 ± 0.00034
G37U C67G	< 1e-05			< 1e-05			
G37U C67U	1.39e-05 ± 4.5e-06	< 1e-05					
G38A C50G	3.77e-05 ± 1.1e-05		3.46e-05 ± 1.4e-05			6.25e-05 ± 1.5e-05	3.79e-05 ± 1.3e-05
C34G C67G	4.36e-05 ± 2.1e-05		4.65e-05 ± 1.9e-05				
G38U C58G	< 1e-05						
A39U G43A	0.000177 ± 1.5e-05		0.000139 ± 1.6e-05	0.000152 ± 1.4e-05	1170 ± 280		5.75e-05 ± 8.5e-06
G38C G40A	< 1e-05			< 1e-05		< 1e-05	
G37C U57G	1.13e-05 ± 4.5e-06			< 1e-05		< 1e-05	
G38A C71G	< 1e-05						
G38A C58G C70U	1.98e-05 ± 8.1e-06						
A36U U49G	2.84e-05 ± 1.2e-05	< 1e-05	3.43e-05 ± 1.7e-05				
